# Experimental data as given in patent publication US20220033516A1.
# Where a chain is given by its changes, count along the chain named.
# B1: MHR0009/CD3 (bispecific antibody, human IgG1, kappa, N297A)
# heavy 1: QSLEESGGRLVTPGTPLTLTCKASGFSLSSYAMIWVRQAPGKGLESIGMVYIHSGGTYYASWAKGRFTISKTSTTVDLKITSPTTEDTATYFCARYNGGGSGTDLWGPGTLVTVSSASTKGPSVFPLAPSSRSTSESTAALGCLVKDYFPEPVTVSWNSGALTSGVHTFPAVLQSSGLYSLSSVVTVPSSSLGTKTYTCNVDHKPSNTKVDKRVEPKSCDKTHTCPPCPAPELRRGPKVFLFPPKPKDTLMISRTPEVTCVVVDVSQEDPEVQFNWYVDGVEVHNAKTKPREEQFASTYRVVSVLTVLHQDWLNGKEYKCKVSNKGLPSSIEKTISKAKGQPREPQVYTLPPSREEMTKNQVSLTCLVKGFYPSDIAVEWESNGQPENNYKTTPPYLDSDGSFFLYSKLTVDKSRWQEGNVFSCSVMHEALHNHYTQESLSLSP
# light 1: DIVMTQTPSSVSEPVGGTVTIKCQASQSIYSYLSWYQQKPGQRPKLLIYYASTLASGVPSRFKGSGSGTQFTLTISDLECADAATYYCQNNYGSDSNIYGIAFGGGTKVEIKRTVAAPSVFIFPPSDEQLKSGTASVVCLLNNFYPREAKVQWKVDNALQSGNSQESVTEQDSKDCTYSLSSTLTLSKADYEKHKVYACEVTHQGLSSPVTKSFNRGEC
# heavy 2: QVQLVESGGGVVQPGGSLRLSCAASGFTFSNAWMHWVRQAPGKGLEWVAQIKDKSQNYATYVAESVKGRFTISRADSKNSIYLQMNSLKTEDTAVYYCRYVHYAAGYGVDIWGQGTTVTVSSASTKGPSVFPLAPSSRSTSESTAALGCLVKDYFPEPVTVSWNSGALTSGVHTFPAVLQSSGLYSLSSVVTVPSSSLGTKTYTCNVDHKPSNTKVDKRVEPKSCDKTHTCPPCPAPELRRGPKVFLFPPKPKDTLMISRTPEVTCVVVDVSQEDPEVQFNWYVDGVEVHNAKTKPREEQFASTYRVVSVLTVLHQDWLNGKEYKCKVSNKGLPSSIEKTISKAKGQPREPQVYTLPPSRKEMTKNQVSLTCLVKGFYPSDIAVEWESNGQPENNYKTTPPYLDSDGSFFLYSKLTVDKSRWQEGNVFSCSVMHEALHNHYTQKSLSLSP
# light 2: DIVMTQSPLSLPVTPGEPASISCRSSQPLVHSNRNTYLHWYQQKPGQAPRLLIYKVSNRFSGVPDRFSGSGSGTDFTLKISRVEAEDVGVYYCGQGTQVPYTFGQGTKLEIKRTVAAPSVFIFPPSDEQLKSGTASVVCLLNNFYPREAKVQWKVDNALQSGNSQESVTEQDSKDSTYSLSSTLTLSKADYEKHKVYACEVTHQGLSSPVTKSFNRGEC
# B2: MHR0016/CD3 (bispecific antibody, human IgG1, kappa, N297A)
# heavy 1: QSVEESGGRLVTPGTPLTLTCTVSGFSLSSNAISWVRQAPGKGLEYIGIISSSGSTYYANWAKGRFTISKTSSTTVDLKMTSATTEDTATYFCARGVDIYGHAYATPYGMDLWGPGTLVTVSSASTKGPSVFPLAPSSRSTSESTAALGCLVKDYFPEPVTVSWNSGALTSGVHTFPAVLQSSGLYSLSSVVTVPSSSLGTKTYTCNVDHKPSNTKVDKRVEPKSCDKTHTCPPCPAPELRRGPKVFLFPPKPKDTLMISRTPEVTCVVVDVSQEDPEVQFNWYVDGVEVHNAKTKPREEQFASTYRVVSVLTVLHQDWLNGKEYKCKVSNKGLPSSIEKTISKAKGQPREPQVYTLPPSREEMTKNQVSLTCLVKGFYPSDIAVEWESNGQPENNYKTTPPYLDSDGSFFLYSKLTVDKSRWQEGNVFSCSVMHEALHNHYTQESLSLSP
# light 1: EVVMTQTPASVSEPVGGTVTIKCQASQSISSYLSWYQQKPGQPPKLLIYYSSTLASGVPSRFKGSGSGTEFTLTISDLECADAATYYCQSNYGSSSSSYEDTFGGGTKVEIKRTVAAPSVFIFPPSDEQLKSGTASVVCLLNNFYPREAKVQWKVDNALQSGNSQESVTEQDSKDCTYSLSSTLTLSKADYEKHKVYACEVTHQGLSSPVTKSFNRGEC
# heavy 2: B1 heavy 2
# light 2: B1 light 2
# B3: MHR0010/CD3 (bispecific antibody, human IgG1, kappa, N297A)
# heavy 1: QSVEESGGRLVTPGTPLTLTCTVSGFSLSRYAMSWVRQAPGKGLEWIGIIVSSSGSTYYATWATGRFTISKTSTTVDLKITSPTTEDTATYFCARIRGYDNIGYGYPWFYYFNLWGPGTLVTVSSASTKGPSVFPLAPSSRSTSESTAALGCLVKDYFPEPVTVSWNSGALTSGVHTFPAVLQSSGLYSLSSVVTVPSSSLGTKTYTCNVDHKPSNTKVDKRVEPKSCDKTHTCPPCPAPELRRGPKVFLFPPKPKDTLMISRTPEVTCVVVDVSQEDPEVQFNWYVDGVEVHNAKTKPREEQFASTYRVVSVLTVLHQDWLNGKEYKCKVSNKGLPSSIEKTISKAKGQPREPQVYTLPPSREEMTKNQVSLTCLVKGFYPSDIAVEWESNGQPENNYKTTPPYLDSDGSFFLYSKLTVDKSRWQEGNVFSCSVMHEALHNHYTQESLSLSP
# light 1: DVVMTQTPASVEAAVGGTVTIKCQASQSISSYLAWYQQKPGQPPKLLIYDASDLASGVPSRFKGSGSGTQFTLTISDLECADAATYYCQSYYYSSSSSYGFAFGGGTKVEIKRTVAAPSVFIFPPSDEQLKSGTASVVCLLNNFYPREAKVQWKVDNALQSGNSQESVTEQDSKDCTYSLSSTLTLSKADYEKHKVYACEVTHQGLSSPVTKSFNRGEC
# heavy 2: B1 heavy 2
# light 2: B1 light 2
# B4: MHR0060/CD3 (bispecific antibody, human IgG1, kappa, N297A)
# heavy 1: QSVEESGGRLVTPGTPLTLTCTVSGFSLSSYAMGWVRQAPGKGLEYIGIISSSGSTYYANWAKGRFTISKTSTTVDLKITSPTTEDTATYFCARGVDIYGHPYATPYGMDLWGPGTLVTVSSASTKGPSVFPLAPSSRSTSESTAALGCLVKDYFPEPVTVSWNSGALTSGVHTFPAVLQSSGLYSLSSVVTVPSSSLGTKTYTCNVDHKPSNTKVDKRVEPKSCDKTHTCPPCPAPELRRGPKVFLFPPKPKDTLMISRTPEVTCVVVDVSQEDPEVQFNWYVDGVEVHNAKTKPREEQFASTYRVVSVLTVLHQDWLNGKEYKCKVSNKGLPSSIEKTISKAKGQPREPQVYTLPPSREEMTKNQVSLTCLVKGFYPSDIAVEWESNGQPENNYKTTPPYLDSDGSFFLYSKLTVDKSRWQEGNVFSCSVMHEALHNHYTQESLSLSP
# light 1: B2 light 1 with S12E, E13V, P14A, S34A, S51A, A81D
# heavy 2: B1 heavy 2
# light 2: B1 light 2
# B5: MHR0019/CD3 (bispecific antibody, human IgG1, kappa, N297A)
# heavy 1: B4 heavy 1 with T12A, F26I, S27D, Y31D, G34A, N60S, P102A
# light 1: B2 light 1 with S51A, A81D
# heavy 2: B1 heavy 2
# light 2: B1 light 2
# Target: recombinant human HER2 S310F ECD protein (human) (UniProt P04626)
# Assay: SPR, Biacore 8K, 37 C, antibody captured by anti-human Fc on CM4, antigen as analyte, 1:1 model
row,Kd,Binder
1,36.2 nM,B1
2,22.3 nM,B2
3,10.8 nM,B3
4,40.4 nM,B4
5,13.9 nM,B5
